Measurements: the RNAGym collection of RNA variant scans (doi:10.7554/elife.90254)

B1: OR4K15 (parent)
chain: GUUAACGGUCAUAGGCCAUGGAAACUAGGAGCACCAUUUCGCUGCCAGUGAAGAAAUGAACAAAGAAAAUCUGGGCCAGGCAGGCAUCAAAAGAAAUAGUCUUGCGCUCAACCAGAAAGUCUGUAAUCAUUUUAAGGGUA

Variants of: B1
Assay: self-cleavage, relative activity (ratio to wild type); higher = more cleavage; in vitro, sequencing; the parent is a self-cleaving ribozyme

| Variant | self-cleavage |
| --- | --- |
| C71U A92G | 0.52 |
| U100A A114U | 0.01 |
| G15C A86U | 1.92 |
| C81A A90G | 0.07 |
| A129G A135U | 1.54 |
| U57A A59G | 0.5 |
| C107U | 0.02 |
| A129G U139C | 0.85 |
| A47G A114G | 0.24 |
| U26C A134G | 1.05 |
| A96G A135U | 2.17 |
| A95G G99A | 1.52 |
| A18G A67G | 1.03 |
| A59G A118U | 0.74 |
| A91U U103C | 0.51 |
| U39C U108C | 0.02 |
| U103C A134U | 0.78 |
| U38C U133A | 1.64 |
| A66G G73A | 0.15 |
| A94C U103C | 0.38 |
| A82U A98G | 0.06 |

| Variant | self-cleavage |
| --- | --- |
| U102C U103C | 0.21 |
| U19A U122C | 0.71 |
| U49A U122A | 1.32 |
| A90G A116U | 0.5 |
| A56G A129C | 1.03 |
| A24G A62U | 1.12 |
| U19C U72C | 0.25 |
| A5U A78G | 0.44 |
| U19A A89U | 0.85 |
| A5G U97C | 1.25 |
| A54U A63G | 1.93 |
| A118G G137A | 0.86 |
| A47G G58A | 0.52 |
| U19A U87C | 0.97 |
| A23G C61A | 1.45 |
| G84A A96U | 2.46 |
| A23G G74A | 0.14 |
| A54U G74U | 0.02 |
| G8C U43C | 2.42 |
| U108G A116G | 0 |
| G31A U139A | 1.78 |

| Variant | self-cleavage |
| --- | --- |
| G136U | 1.07 |
| A64U A126U | 1.2 |
| A69G A118G | 0.98 |
| U2A A51G | 0.51 |
| A68C A90G | 1.24 |
| A23U A118G | 0.66 |
| A24G U57G | 0.4 |
| U3C A125U | 0.83 |
| A23G G48A | 1.29 |
| A66G A89U | 1.97 |
| A95G | 1.85 |
| A91U U100C | 2.82 |
| A51G A62G | 0.33 |
| U131C G137U | 1.54 |
| A30G A69G | 1.27 |
| A82C A117G | 0.15 |
| U39C U131C | 1.05 |
| U43C U122A | 1.34 |
| A36C A64G | 2.21 |
| C32G A96U | 1.87 |
| G65A U132C | 0.58 |

| Variant | self-cleavage |
| --- | --- |
| G74U A116U | 0.03 |
| U70A U103A | 0.67 |
| A22G A94G | 0.92 |
| U37A A51U | 1.05 |
| A5U A27G | 2.05 |
| U19C U70A | 1.06 |
| A54G A111G | 0.03 |
| A52G A125U | 0.86 |
| C40A A66G | 1.69 |
| A23G U120G | 1.48 |
| U102G A116G | 0.62 |
| A13U A114U | 0.07 |
| A51G U100A | 0.56 |
| A13C G79U | 0.17 |
| U72C C128A | 0.13 |
| C40U A52G | 1.54 |
| A86G U132A | 1.2 |
| A11U U122C | 0.19 |
| U87G A126C | 0.12 |
| A13U A78G | 0.2 |
| A54G U124C | 0.75 |
